Experimental data reported in doi:10.1101/2024.02.14.580290 (bioRxiv, 2024).

Target: rat Gβ1 with Hexa-His-tag (in purified Gαsβ1γ2) (rat, UniProt P54311 2-340)
Test: cross-linking

B1: bovine Gαs short subunit (in purified Gαsβ1γ2) (natural protein)
chain: MGCLGNSKTEDQRNEEKAQREANKKIEKQLQKDKQVYRATHRLLLLGAGESGKSTIVKQMRILHVNGFNGDGEKATKVQDIKNNLKEAIETIVAAMSNLVPPVELANPENQFRVDYILSVMNVPDFDFPPEFYEHAKALWEDEGVRACYERSNEYQLIDCAQYFLDKIDVIKQDDYVPSDQDLLRCRVLTSGIFETKFQVDKVNFHMFDVGGQRDERRKWIQCFNDVTAIIFVVASSSYNMVIREDNQTNRLQEALNLFKSIWNNRWLRTISVILFLNKQDLLAEKVLAGKSKIEDYFPEFARYTTPEDATPEPGEDPRVTRAKYFIRDEFLRISTASGDGRHYCYPHFTCAVDTENIRRVFNDCRDIIQRMHLRQYELL
binding result: binds
